Laboratory results from US20260167699A1 (Chugai, published 2026).

B1: GpH7-A5/GpH7-B3 variant S324_19Q/GpL16-k0 (antibody, human IgG1, kappa)
heavy 1: not shown
heavy 2: not shown
light: DIVMTQSPLSLPVTPGEPASISCQASESLVHSNRNTYLHWYLQKPGQSPQLLIYKVSNRFSGVPDRFSGSGSGTDFTLKISRVEAEDVGVYYCSQNTHVPPTFGQGTKVEIERTVAAPSVFIFPPSDEQLKSGTASVVCLLNNFYPREAKVQWKVDNALQSGNSQESVTEQDSKDSTYSLSSTLTLSKADYEKHKVYACEVTHQGLSSPVTKSFNRGEC
notes: copies: 1 + 1 + 2
B2: GpH7-A5/GpH7-B3 variant S337_06M/GpL16-k0 (antibody, human IgG1, kappa)
heavy 1: not shown
heavy 2: not shown
light: B1 light
notes: copies: 1 + 1 + 2
B3: GpH7-A5/GpH7-B3 variant S337_08L/GpL16-k0 (antibody, human IgG1, kappa)
heavy 1: not shown
heavy 2: not shown
light: B1 light
notes: copies: 1 + 1 + 2
B4: GpH7-A5/GpH7-B3 variant Y296_10E/GpL16-k0 (antibody, human IgG1, kappa)
heavy 1: not shown
heavy 2: not shown
light: B1 light
notes: copies: 1 + 1 + 2
B5: GpH7-A5/GpH7-B3 variant T335_11K/GpL16-k0 (antibody, human IgG1, kappa)
heavy 1: not shown
heavy 2: not shown
light: B1 light
notes: copies: 1 + 1 + 2
B6: GpH7-A5/GpH7-B3 variant Y296_06M/GpL16-k0 (antibody, human IgG1, kappa)
heavy 1: not shown
heavy 2: not shown
light: B1 light
notes: copies: 1 + 1 + 2
B7: GpH7-A5/GpH7-B3 variant T335_15Y/GpL16-k0 (antibody, human IgG1, kappa)
heavy 1: not shown
heavy 2: not shown
light: B1 light
notes: copies: 1 + 1 + 2
B8: GpH7-A5/GpH7-B3 variant T335_07I/GpL16-k0 (antibody, human IgG1, kappa)
heavy 1: not shown
heavy 2: not shown
light: B1 light
notes: copies: 1 + 1 + 2
B9: GpH7-A5/GpH7-B3 variant T335_12R/GpL16-k0 (antibody, human IgG1, kappa)
heavy 1: not shown
heavy 2: not shown
light: B1 light
notes: copies: 1 + 1 + 2
B10: GpH7-A5/GpH7-B3 variant S337_14T/GpL16-k0 (antibody, human IgG1, kappa)
heavy 1: not shown
heavy 2: not shown
light: B1 light
notes: copies: 1 + 1 + 2
B11: GpH7-A5/GpH7-B3 variant S337_10E/GpL16-k0 (antibody, human IgG1, kappa)
heavy 1: not shown
heavy 2: not shown
light: B1 light
notes: copies: 1 + 1 + 2
B12: GpH7-A5/GpH7-B3 variant S337_19Q/GpL16-k0 (antibody, human IgG1, kappa)
heavy 1: not shown
heavy 2: not shown
light: B1 light
notes: copies: 1 + 1 + 2
B13: GpH7-A5/GpH7-B3 variant T335_04F/GpL16-k0 (antibody, human IgG1, kappa)
heavy 1: not shown
heavy 2: not shown
light: B1 light
notes: copies: 1 + 1 + 2
B14: GpH7-A5/GpH7-B3 variant S337_15Y/GpL16-k0 (antibody, human IgG1, kappa)
heavy 1: not shown
heavy 2: not shown
light: B1 light
notes: copies: 1 + 1 + 2
B15: GpH7-A5/GpH7-B3 variant V266_06M/GpL16-k0 (antibody, human IgG1, kappa)
heavy 1: not shown
heavy 2: not shown
light: B1 light
notes: copies: 1 + 1 + 2
B16: GpH7-A5/GpH7-B3 variant Y296_03V/GpL16-k0 (antibody, human IgG1, kappa)
heavy 1: not shown
heavy 2: not shown
light: B1 light
notes: copies: 1 + 1 + 2
B17: GpH7-A5/GpH7-B3 variant Y296_14T/GpL16-k0 (antibody, human IgG1, kappa)
heavy 1: not shown
heavy 2: not shown
light: B1 light
notes: copies: 1 + 1 + 2
B18: GpH7-A5/GpH7-B3 variant S337_11K/GpL16-k0 (antibody, human IgG1, kappa)
heavy 1: not shown
heavy 2: not shown
light: B1 light
notes: copies: 1 + 1 + 2
B19: GpH7-A5/GpH7-B3 variant S337_01G/GpL16-k0 (antibody, human IgG1, kappa)
heavy 1: not shown
heavy 2: not shown
light: B1 light
notes: copies: 1 + 1 + 2
B20: GpH7-A5/GpH7-B3 variant T335_20W/GpL16-k0 (antibody, human IgG1, kappa)
heavy 1: not shown
heavy 2: not shown
light: B1 light
notes: copies: 1 + 1 + 2
B21: GpH7-A5/GpH7-B3 variant S337_12R/GpL16-k0 (antibody, human IgG1, kappa)
heavy 1: not shown
heavy 2: not shown
light: B1 light
notes: copies: 1 + 1 + 2
B22: GpH7-A5/GpH7-B3 variant Y296_19Q/GpL16-k0 (antibody, human IgG1, kappa)
heavy 1: not shown
heavy 2: not shown
light: B1 light
notes: copies: 1 + 1 + 2
B23: GpH7-A5/GpH7-B3 variant S337_03V/GpL16-k0 (antibody, human IgG1, kappa)
heavy 1: not shown
heavy 2: not shown
light: B1 light
notes: copies: 1 + 1 + 2
B24: GpH7-A5/GpH7-B3 variant V266_08L/GpL16-k0 (antibody, human IgG1, kappa)
heavy 1: not shown
heavy 2: not shown
light: B1 light
notes: copies: 1 + 1 + 2
B25: GpH7-A5/GpH7-B3 variant T335_06M/GpL16-k0 (antibody, human IgG1, kappa)
heavy 1: not shown
heavy 2: not shown
light: B1 light
notes: copies: 1 + 1 + 2
B26: GpH7-A5/GpH7-B3 variant Y296_18N/GpL16-k0 (antibody, human IgG1, kappa)
heavy 1: not shown
heavy 2: not shown
light: B1 light
notes: copies: 1 + 1 + 2
B27: GpH7-A5/GpH7-B3 variant S337_18N/GpL16-k0 (antibody, human IgG1, kappa)
heavy 1: not shown
heavy 2: not shown
light: B1 light
notes: copies: 1 + 1 + 2
B28: GpH7-A5/GpH7-B3 variant T335_10E/GpL16-k0 (antibody, human IgG1, kappa)
heavy 1: not shown
heavy 2: not shown
light: B1 light
notes: copies: 1 + 1 + 2

Target: T1, FcγRIIIa (human, UniProt P08637 17-208)
T1 construct: extracellular domain; also called 3a; FcγRIIIa extracellular domain
T1 sequence (P08637 other isoform, or with tags, fused parts or gaps): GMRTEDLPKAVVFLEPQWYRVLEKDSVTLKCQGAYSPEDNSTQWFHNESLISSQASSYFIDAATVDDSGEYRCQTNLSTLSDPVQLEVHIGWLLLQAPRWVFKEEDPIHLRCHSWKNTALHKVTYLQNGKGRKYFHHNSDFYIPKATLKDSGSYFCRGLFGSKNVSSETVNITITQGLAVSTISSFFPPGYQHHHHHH
Test: SPR (Biacore);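 note: antibody variants captured on an SPR sensor chip, with FcγRIIIa passed over as analyte in HBS-EP+ buffer at 25 °C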

Binder | He/Con 3a
B1 | 96.2 % of GpH7-A5/GpH7-B3/GpL16-k0
B2 | 89.7 % of GpH7-A5/GpH7-B3/GpL16-k0
B3 | 90.2 % of GpH7-A5/GpH7-B3/GpL16-k0
B4 | 76.8 % of GpH7-A5/GpH7-B3/GpL16-k0
B5 | 91.7 % of GpH7-A5/GpH7-B3/GpL16-k0
B6 | 74.6 % of GpH7-A5/GpH7-B3/GpL16-k0
B7 | 99.7 % of GpH7-A5/GpH7-B3/GpL16-k0
B8 | 102 % of GpH7-A5/GpH7-B3/GpL16-k0
B9 | 93.1 % of GpH7-A5/GpH7-B3/GpL16-k0
B10 | 94 % of GpH7-A5/GpH7-B3/GpL16-k0
B11 | 97.8 % of GpH7-A5/GpH7-B3/GpL16-k0
B12 | 91.2 % of GpH7-A5/GpH7-B3/GpL16-k0
B13 | 91.7 % of GpH7-A5/GpH7-B3/GpL16-k0
B14 | 94.9 % of GpH7-A5/GpH7-B3/GpL16-k0
B15 | 84.9 % of GpH7-A5/GpH7-B3/GpL16-k0
B16 | 69.1 % of GpH7-A5/GpH7-B3/GpL16-k0
B17 | 60.7 % of GpH7-A5/GpH7-B3/GpL16-k0
B18 | 80.1 % of GpH7-A5/GpH7-B3/GpL16-k0
B19 | 95.2 % of GpH7-A5/GpH7-B3/GpL16-k0
B20 | 97.3 % of GpH7-A5/GpH7-B3/GpL16-k0
B21 | 92.7 % of GpH7-A5/GpH7-B3/GpL16-k0
B22 | 71.4 % of GpH7-A5/GpH7-B3/GpL16-k0
B23 | 87.1 % of GpH7-A5/GpH7-B3/GpL16-k0
B24 | 117 % of GpH7-A5/GpH7-B3/GpL16-k0
B25 | 97 % of GpH7-A5/GpH7-B3/GpL16-k0
B26 | 67.9 % of GpH7-A5/GpH7-B3/GpL16-k0
B27 | 96.9 % of GpH7-A5/GpH7-B3/GpL16-k0
B28 | 102 % of GpH7-A5/GpH7-B3/GpL16-k0
